According to the nanobody polyreactivity screen of Harvey et al. (2022):

experiment: yeast display, Sf9 membrane polyspecificity reagent, FACS + sequencing; frameworks hold sequencing errors
Method in brief: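 Nanobodies came from a synthetic yeast display library in Saccharomyces cerevisiae BJ5465, induced with galactose for 36–48 hours and stained for 1 hour at 4 °C with 10% biotinylated, detergent-solubilized Sf9 membrane reagent. Cells were enriched on streptavidin microbeads and then FACS-sorted, with low and high (top ~1%) gates set on anti-HA fluorescence for expression and streptavidin fluorescence for reagent binding. Each polyreactivity label reflects the gate a clone came from. Genes were amplified by colony PCR, sequenced by MiSeq 2 × 250 and filtered by CDR length.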

Row | Sequence | polyreactivity (PSR sort gate)
1 | QVQLVESGGGLVQAGGSHRLSCAASGRTFSTYSMGWYRQAPGKERELVAAISSGGGRTYYADSVKGRFTISRDIAKNTVYLQINSLKPEDTAVYDGAADRYFRSRRSYEYWGQGTQVTVSS | low polyreactivity
2 | QVQLVESGGGLVQAGGSHRLSCAASGRTFVFYAMGWYRPAPGKERELVAAISRSGGSTYYADSVKGRFTISRDNAKNTVFLQMNSLKPEDTAVSYCNARYTGSGGYWGQGTQVTVSS | high polyreactivity
3 | QVQLVESGGGLVQAGGSHRLSCAASGRTFYAYAMGWYRQAPGKERELVAANRYSGGRTYYADSVKGRFTISRDNAKNTVYLQMNSLKPEDTGVYYCAREWSRGSYVDYDYWGQGTQVTVSS | high polyreactivity
4 | QVQLVESGGGLVQAGGSHRLSCAASGRTFYFYTMGWYRPAPGKESELVATIRWSAGSTYYADSVKGRFTISRDNAKNTVYLQMNSLKPEDTAVYYCNADPYVYSSWEYGYWGLGTQVTVSS | high polyreactivity
5 | QVQLVESGGGLVQAGGSHRLSCAASGSIFYDNAMGWYRQAPGKERELVAVITVSGDSTYYADSVKGRFTISRDNAKNTVYLQMNSLKPEDTAVYYCNTDAISGSHFWRYITFGYLDDYWGQGTQVTVSS | low polyreactivity
6 | QVQLVESGGGLVQAGGSHRLSCAASGSTFRVYAMGWYRQAPGKERELVATISWGGGRTYYADSVKGRFTISRDNAKNTVYLQMNSLKPEDTAVYYCAADQRWTTDQPTAGDYWGQGTQVTVSS | low polyreactivity
7 | QVQLVESGGGLVQAGGSHRLSCAASGSTFTYNAMGWYRQAPGKERELVASISSGTTTYYADSVKGRFTISRDNAKNTVYLQMNSLIPEDTAVYDCAVDSWSRVQGWLAHNYDYWGQGTQVTVSS | low polyreactivity
8 | QVQLVESGGGLVQAGGSHRLSCAASGSTFVPYTMGWYRQAPGKERELVAAISGSGGTDYADSVKGRFTISRDNAKNTVYLQMNSLKPEDTAVYYCATDGLDFWFIYDYWGQGTQVTVST | low polyreactivity
9 | QVQLVESGGGLVQAGGSHRLSCAASGSTFVRNAMGWYRPAPAKERGLVAGISTSGGRTYYADSVKGRFTISRDNAKNTVYLQMNSLKPEDTAVYDCAVLAWRSIAYDKYDYWGQGTQVTVSS | high polyreactivity
10 | QVQLVESGGGLVQAGGSHRLSCAASGSTLSVNAMGWYRQAPGKERELGAAIDFDGGDTYYADSVKGRFTLSRDNAKNTVYLQMNSLKPEDTAVYSCNAALRWKYDWVQGTQVTVSS | low polyreactivity
11 | QVQLVESGGGLVQAGGSHRLSCAASGYIFGYNAMGWYRQAPGKEREFVAAIRFSGGSTYYADSVKGRFTISRDNAKNTVYLQMNSMKPEDTAVYYCAKRGYGHLIPIAYEYWGQGTQVTVSS | low polyreactivity
12 | QVQLVESGGGLVQAGGSHRLSCASYGLIFESYVMGWDRQAPGKERELVAAIRSSGGSTYYADSVKGRFTISRDNAKNTVYLQMNCLNPEDTAVYYCAANYYYYLTISWWYAYDYWGQGTQVTVSS | low polyreactivity
13 | QVQLVESGGGLVQAGGSHRLSCDASGYIFRRYAMGWYRQAPGKERELVAAISWRGGSTYYADSVKGRFTISRDNAKNTVYLQMNSLKPEDSAVYYCAKVVPGAGHLDEYWGQGTQVTVSS | high polyreactivity
14 | QVQLVESGGGLVQAGGSHRLSFAASGSIFTRYAMGWYRPAHGKEREFVAGISWTGGSTYYADSVKGRFTISRDIAKNTVYLQMYRLKPEDTGVYYCAAGYWYSAFSGWWDYSDLYYWGQGTQVTVSS | high polyreactivity
15 | QVQLVESGGGLVQAGGSHRLSSAASGSILADNAMGWYRQAPGKERELVAAISLRGGRTYYADSVKGGFTISRDNAKNTVYLQMNSLKPEDTAVYYCAAVGSFHIVDYWGEGTQVTVSS | high polyreactivity
16 | QVQLVESGGGLVQAGGSIGLNCAASVSSYEPYVMGWYRQATGKEMELVGAIYESGDTTYYADSVKGRFTISRDNAKNTVYLQMNSLKPEDSAVYYCNAEDPSIYGWWRVGEYDYWGQGTQVTVSS | low polyreactivity
17 | QVQLVESGGGLVQAGGSIRLSCAASGFTIFLNAMGWYRQAPGKERELVAAITVSGSSTYYADSVKGRFTISRDNAKNTVYLQMNSLKPEETAVYYCNAEIYSPYYTYDYWGQGTQVTVSS | low polyreactivity
18 | QVQLVESGGGLVQAGGSIRLSCAASGGTFSAYAMGWYRQAPGKERELVAAINISGGRTYYADSVKGRFTISRDNAKNTVYLQMNSLKPEDTAVYYCAAKNFRDRGNDYWGQGTQVTVSS | high polyreactivity
19 | QVQLVESGGGLVQAGGSIRLSCAASGITFAWNAMGWYRQAPGKERELVAAITKRGGSTYYADSVKGRFTISRDNAKNTVYLQMNSLKPEYTAFYYCAARGYISRYDARANAVQGNYWGQGTQVTVSS | high polyreactivity
20 | QVQLVESGGGLVQAGGSIRLSCAASGRIFYAYTMGWYRQAPVKERELVAAIRRRGTTYYADSVKGRFTISRDNAKNTVYLQMNSLKPDDTAVYYCAKDALGYRTSSALLGDYWGQGTQVTVSS | high polyreactivity

Row | Sequence | polyreactivity (PSR sort gate)
21 | QVQLVESGGGLVQAGGSIRLSCAASGRTFDSNAIGWYRQAAGKEWQLVAAISCSGDTTYDADTVKGRFTISRDNAKNTVYLQINILKPEDTAVYYCAADHDSYDSGYDYWGQGTQGTVSS | low polyreactivity
22 | QVQLVESGGGLVQAGGSIRLSCAASGRTFPAYAMGWYRQAPGKERELVAAISYSGGRTRYADSVKGRFTISRDNAKYTVYLQMNSLKPEDTAVYYCNRVIPTQSLRDYYWGQGTQVTVSS | high polyreactivity
23 | QVQLVESGGGLVQAGGSIRLSCAASGRTFYGYAMGRYRQAPGKEREFDAAISVGGVSTYYADSVKGRFTISRDNAKNTVYLQMNSLKPEDTAVYYCAAYTRYWSYGYWGQGTQVTVSS | high polyreactivity
24 | QVQLVESGGGLVQAGGSIRLSCAASGSIFYYGLGWYRQAPGKERELVAAITRGGSTYYADSVKGRFTISRDNAKNTVYLQMNSLKPEDTAVYYCAKYPVGGYDYWGQGTQVTVSS | low polyreactivity
25 | QVQLVESGGGLVQAGGSIRLSCAASGSLFEPYFMGWYRQAPGKERELVAAIRQTGGSTYYADSVKGRFTISRDTAKNTVYLQMNSLKPEDTAVYYCAKDSQTARDFDYWGQGTQGTVSS | low polyreactivity
26 | QVQLVESGGGLVQAGGSIRLSCAASGSTFRYYTMGWYRQAPGKERELVATITRDGRTYYADSVKGRFTISRDNAKNTVYLQMYSLKPEDTAVYYCNVRRAFSGWRGYDYWGQGTQVTVSS | high polyreactivity
27 | QVQLVESGGGLVQAGGSIRLSCAASGYTFVTNAMGWYRPAPGKERELVAAITTVGSTNYADSGKGRFTISRDNAKNTVYLQMNSLKPEDTAVYYCNANWYEWYGWGQGTQVTVSS | low polyreactivity
28 | QVQLVESGGGLVQAGGSIRLTCAASGTIFPYYAKGWYRQAPGKERELVAAISDSGDSTYYADSVKGRFTISRDNAKNTVYLQMNSLKPEDTAVYYCAADQTSSYYDPWGDYWGQGTQVTVSS | low polyreactivity
29 | QVQLVESGGGLVQAGGSLGLSCAASGFIFYAYVMGRYRQAPGKERELVAAISRNGGSTYYADSVKGRFTISRDNAKKSVYLQMNSLKPEDTAVYYCAALSYYRYSQEDDYWGQGTQVTVSS | high polyreactivity
30 | QVQLVESGGGLVQAGGSLGLSCAASGRIFSRNAMGWYRQATGKEREFVAAISRRGTSTYYADSVKGRFTISRDNAMNTVYLQMNSLNPESTAVYYCNVDQWASQRYSRYDYWGQGTQVTVSW | high polyreactivity
31 | QVQLVESGGGLVQAGGSLGLSCAASGRTFSQYAMGWYRQAPGKERELVAAISWSGGYTYYADSVKGRFTISRDNAKNTVYLQMNSLKPEDTAVYYCAAVGKGSARSSYPVLYDYWGQGTQVTVSS | low polyreactivity
32 | QVQLVESGGGLVQAGGSLGLSCAASGRTFYRNAMGWYRQAPGIERELVAPITNGGRTYYADSVKGRFTISRDNAKNTVNLQMNSLKPEDTAVYYCNALDAKLSEYEYWGQGTEVTVSS | low polyreactivity
33 | QVQLVESGGGLVQAGGSLGLSCAASGSIFRGYAMGWYIQAPGKERELVAAITSSGGSTNYADSVKGRFTISRDNAKNTVYLQMNSLKPEDTAVYYCAAGVIREKYYIWSDYEYDYWGQGTQVNVSS | low polyreactivity
34 | QVQLVESGGGLVQAGGSLGLSCAASGSTFAGNTMGWYRQAPGKERELVATITRGDSTNYADSVKGRFTISRDNAKNTVYLQMNSLIPEDTAVYYCAAVGRRRTTVGRYVRMDYWGQGTQVTVSS | low polyreactivity
35 | QVQLVESGGGLVQAGGSLGLSCAASGYIFGIYAMGWYRQAAGKERELVAAISSDSTYYADSVKGRFTISRDNAKNTVYLQMNSLKPEDTAVYYCAPYWFNQDYEFEYWGQGTQVTVSS | high polyreactivity
36 | QVQLVESGGGLVQAGGSLHLSCAASGFTFGRYAMGWFRQAPGKERELVAAISRRGGSTYYADSVKGRFTISRDNANNTVYLQMNSLKPEDTAVYYCNVDKYRIVGFHSPYDYWVQGTQVTVSS | high polyreactivity
37 | QVQLVESGGGLVQAGGSLLLICAASGRTFPYNAMGWYRQAPGKEREFVAAISVGGGSTYADSVKGRFTISRDNAKNTVYLQMNSLKPEDTAVYYCAAAYTKLYYYWGQGTQVTVSS | low polyreactivity
38 | QVQLVESGGGLVQAGGSLLLSCAASGFIFGLNAMGWYRQAPGKERELVAAIRSASSTNYADSVKGRFTISRDNAKNTVYLQMNSLKPEDTAVYYCAAEYVTYQQGFWGYDYWGQGTQVTVSS | low polyreactivity
39 | QVQLVESGGGLVQAGGSLLLSCAASGGTFRNNAMGWYRQAPVKERELVAAISSSGTSTYYADSVKGRFTISRDNVKNTVYLQMNSLKPEDTAVYYCNADALGSPWWDHMDYWGQGTQVTVSS | low polyreactivity
40 | QVQLVESGGGLVQAGGSLLLSCAASGGTFYYYAMGWYRQAPGKERELVASISSRGGSTYYADSVKGRFTISRDNAKNTVYLQMNSLKPEDTAVYYCAARSLYSGFGYWGQGTQVTVSS | high polyreactivity
